Values quoted from earlier work as cited in article PMC3819593.

Key:
LLT1 (Homo sapiens) = LLT1 (Homo sapiens) (UniProt Q9UHP7)
AICL (Homo sapiens) = AICL (Homo sapiens) (UniProt Q92478)
UniProt Q92478, sequence (Q92478 whole entry): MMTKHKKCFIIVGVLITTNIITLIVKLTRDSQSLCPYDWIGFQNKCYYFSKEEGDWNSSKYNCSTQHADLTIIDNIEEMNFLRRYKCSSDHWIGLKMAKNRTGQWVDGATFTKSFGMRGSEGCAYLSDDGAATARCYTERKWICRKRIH

UniProt Q9UHP7, sequence (Q9UHP7 whole entry): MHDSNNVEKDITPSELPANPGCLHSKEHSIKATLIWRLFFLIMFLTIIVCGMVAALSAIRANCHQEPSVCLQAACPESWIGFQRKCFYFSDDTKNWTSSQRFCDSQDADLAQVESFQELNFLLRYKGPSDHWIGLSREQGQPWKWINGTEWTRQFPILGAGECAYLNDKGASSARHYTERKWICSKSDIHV

| Kd (LLT1 (Homo sapiens)) [µM] | Kd (AICL (Homo sapiens)) [µM] | Substance |
| --- | --- | --- |
| 48 | – | NKRP1A (from UniProt Q12918) |
| – | 4 | NKp80 (from UniProt Q9NZS2) |
